Assay results published in patent publication US20130071400A1, “LINGO binding molecules and Pharmaceutical Use Thereof” (NOVARTIS AG, priority 2006, published 2013).

System: postnatal day 7 rat cerebellar granule neurons (CGN)
Test: Neurite outgrowth inhibition assay on spinal cord myelin
Type: cell-based
Conditions: sub-nM concentrations in vitro
Protocol: A) P7 CGN cells are incubated for 16 hr on wells coated without spinal cord myelin (no SC, white bars) or wells coated with spinal cord myelin in the absence (SC, red bars) or presence of anti-LINGO-1 IgG4 antibodies, a control anti-lysozyme IgG4 antibody 3207 (green bars) or […] of the ROCK inhibitor Y27632 (yellow bar). […] The experiment is performed in three 96 well plates with an SC and no SC condition per plate to which the effects of the antibodies on that plate are compared and mean neurite length per neuron (μm) is calculated for 500 neurons per well in replicates of 10. The percentage inhibition (white text) is calculated as the percentile difference in mean neurite length/neuron between cells plated on wells coated with and without SC. The percentage disinhibition (black italic text) is calculated as the difference in mean neurite length between cells plated on SC in the presence and absence of anti-LINGO-1 antibody as a percentile of the difference between cells plated on wells coated with and without SC. *p<0.05, **p<0.01 (one way ANOVA, Holm-Sidak comparison to mean neurite length/neuron for cells plated on spinal cord myelin in the absence of antibody).
A) P7 CGN cells are incubated for 8 hr on wells coated without spinal cord myelin (no SC, white bars) or wells coated with spinal cord myelin in the absence (SC, red bars) or presence of anti-LINGO-1 IgG4 antibodies or a control anti-lysozyme IgG4 antibody 3207. The experiment is performed in three 96 well plates with an SC and no SC condition per plate to which the effects of the antibodies on that plate are compared and mean neurite length per neuron (μm) is calculated for 500 neurons per well in replicates of 10. The percentage inhibition (white text) and disinhibition (black italic text) is calculated as above. **p<0.01 (one way ANOVA, Holm-Sidak comparison to mean neurite length/neuron for cells plated on spinal cord myelin in the absence of antibody).
P7 CGN cells are incubated for 8 hr on wells coated without spinal cord myelin (no SC) or wells coated with spinal cord myelin in the absence (SC) or presence of the indicated concentrations of anti-LINGO-1 IgG4 antibodies 4784 or 4785, a control anti-lysozyme IgG4 antibody 3207 or 1 μM Y27632 (ROCK). The experiment is performed in three 96 well plates with an SC and no SC condition per plate to which the effects of the antibodies on that plate are compared and mean neurite length per neuron (μm) is calculated for 500 neurons per well in replicates of 10. The percentage inhibition (white text) and disinhibition (black italic text) is calculated as above. *p<0.05, **p<0.01 (one way ANOVA, Holm-Sidak comparison to mean neurite length/neuron for cells plated on spinal cord myelin in the absence of antibody). […]

B1: IgG4 4785: monoclonal human anti-LINGO-1 IgG4 antibody; VL SEQ ID NO: 6, VH SEQ ID NO: 7 (antibody, V domains shown)
VH: QVQLQQSGPGLVKPSQTLSLTCAISGDSVSDNSAAWSWIRQSPGRGLEWLGLIYLRSKWDNDYAVSVKSRITINPDTSKNQFSLQLNSVTPEDTAVYYCARTGRADEFDVWGQGTLVTVSS
VL: DIVLTQPPSVSGAPGQRVTISCSGSSSNIGNNYVSWYQQLPGTAPKLLISRNSKRPSGVPDRFSGSKSGTSASLAITGLQSEDEADYYCSTYDTFSIVFGGGTKLTVLG
modifications: IgG4; 4785 VH; 4785 VL
With B1 the “attenuation of the neurite outgrowth inhibitory activity of adult rat spinal cord myelin” value was “significantly attenuate”.

B2: IgG4 4784: monoclonal human anti-LINGO-1 IgG4 antibody; VL SEQ ID NO: 4, VH SEQ ID NO: 5 (antibody, V domains shown)
VH: QVQLKESGPALVKPTQTLTLTCTFSGFSLSSSGVGVGWIRQPPGKALEWLAHIGSDDDKYYSTSLKTRLTISKDTSKNQVVLTMTNMDPVDTATYYCARNQQYGDGYPGYFDYWGQGTLVTVSS
VL: DIELTQPPSVSVAPGQTARISCSGDNIGNYYVYWYQQKPGQAPVLVIYEDTNRPSGIPERFSGSNSGNTATLTISGTQAEDEADYYCQSYDNLHEQVFGGGTKLTVLG
modifications: IgG4; 4784 VH; 4784 VL
For B2, the “attenuation of the neurite outgrowth inhibitory activity of adult rat spinal cord myelin” value was “significantly attenuate”.
